# In publication doi:10.1101/2023.10.30.564668 (bioRxiv, 2023):
# B1: CR57 diabody (other)
# VH: EVQLVQSGAEVKKPGSSVKVSCKASGGTFNRYTVNWVRQAPGQGLEWMGGIIPIFGTANYAQRFQGRLTITADESTSTAYMELSSLRSDDTAVYFCARENLDNSGTYYYFSGWFDPWGQGTLVTVSS
# VL: QSALTQPRSVSGSPGQSVTISCTGTSSDIGGYNFVSWYQQHPGKAPKLMIYDATKRPSGVPDRFSGSKSGNTASLTISGLQAEDEADYYCCSYAGDYTPGVVFGGGTKLTVL
# Target: RABV-G domain III (Rabies virus, strain CVS-11 (GenBank …, stabilised))
# Assay: crystal structure
binder,measurement,value
B1,stoichiometry N,2 domain III per diabody
